Publication PMC2172161 (The Journal of Cell Biology, 2004)
Like-named read-outs stand apart in the source and are kept apart here.

B1: Cdc12-His6 (natural protein)
chain: MSAATATAAPVPPPVGISNLPNQRYKIVNEEGGTFTVMLCGESGLGKTTFINTLFQTVLKRADGQQHRQEPIRKTVEIDITRALLEEKHFELRVNVIDTPGFGDNVNNNKAWQPLVDFIDDQHDSYMRQEQQPYRTKKFDLRVHAVLYFIRPTGHGLKPIDIETMKRLSTRANLIPVIAKADTLTAQELQQFKSRIRQVIEAQEIRIFTPPLDADSKEDAKSGSNPDSAAVEHARQLIEAMPFAIVGSEKKFDNGQGTQVVARKYPWGLVEIENDSHCDFRKLRALLLRTYLLDLISTTQEMHYETYRRLRLEGHENTGEGNEDFTLPAIAPARKLSHNPRYKEEENALKKYFTDQVKAEEQRFRQWEQNIVNERIRLNGDLEEIQGKVKKLEEQVKSLQVKKSHLK
B2: Cdc12(T48N)-His6 (natural protein)
chain: MSAATATAAPVPPPVGISNLPNQRYKIVNEEGGTFTVMLCGESGLGKNTFINTLFQTVLKRADGQQHRQEPIRKTVEIDITRALLEEKHFELRVNVIDTPGFGDNVNNNKAWQPLVDFIDDQHDSYMRQEQQPYRTKKFDLRVHAVLYFIRPTGHGLKPIDIETMKRLSTRANLIPVIAKADTLTAQELQQFKSRIRQVIEAQEIRIFTPPLDADSKEDAKSGSNPDSAAVEHARQLIEAMPFAIVGSEKKFDNGQGTQVVARKYPWGLVEIENDSHCDFRKLRALLLRTYLLDLISTTQEMHYETYRRLRLEGHENTGEGNEDFTLPAIAPARKLSHNPRYKEEENALKKYFTDQVKAEEQRFRQWEQNIVNERIRLNGDLEEIQGKVKKLEEQVKSLQVKKSHLK

Experiments:
[1] = biological target: His6Cdc12–Cdc3–Cdc10–Cdc11 complex (Saccharomyces cerevisiae, UniProt P25342+P32468); test: binding of α[…]GTP to complex on Ni2+-NTA beads; conditions: labelled compound
Cdc12-His6 [2] = biological target: T1, Cdc12-His6 (Saccharomyces cerevisiae, UniProt P32468); test: GTPase, phosphate release from γ[…]GTP; type: biochemical; conditions: labelled compound
T1 sequence (P32468 1-407): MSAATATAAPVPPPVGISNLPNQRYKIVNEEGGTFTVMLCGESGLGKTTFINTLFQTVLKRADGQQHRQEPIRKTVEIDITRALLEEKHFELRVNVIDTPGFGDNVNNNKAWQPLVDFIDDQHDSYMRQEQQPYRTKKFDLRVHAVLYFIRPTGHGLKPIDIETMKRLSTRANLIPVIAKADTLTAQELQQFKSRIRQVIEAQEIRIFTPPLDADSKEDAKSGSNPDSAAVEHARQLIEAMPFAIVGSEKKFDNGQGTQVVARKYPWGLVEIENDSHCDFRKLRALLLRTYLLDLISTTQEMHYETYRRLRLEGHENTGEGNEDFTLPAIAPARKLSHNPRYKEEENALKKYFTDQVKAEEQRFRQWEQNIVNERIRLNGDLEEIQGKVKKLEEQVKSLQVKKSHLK

Cdc10 = biological target: T2, Cdc10 (Saccharomyces cerevisiae, UniProt P25342); test: GTPase, phosphate release from γ[…]GTP; type: biochemical; conditions: labelled compound
T2 sequence (P25342 1-322): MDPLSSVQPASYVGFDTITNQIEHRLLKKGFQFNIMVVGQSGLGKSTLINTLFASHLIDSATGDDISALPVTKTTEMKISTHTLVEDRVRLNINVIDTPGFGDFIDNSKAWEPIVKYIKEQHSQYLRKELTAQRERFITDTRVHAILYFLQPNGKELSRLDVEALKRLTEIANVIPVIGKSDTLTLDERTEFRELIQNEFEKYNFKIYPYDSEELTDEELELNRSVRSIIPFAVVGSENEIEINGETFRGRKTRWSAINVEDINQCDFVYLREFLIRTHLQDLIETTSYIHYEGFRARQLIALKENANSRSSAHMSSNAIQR

[3] = biological target: T3, Cdc12ΔC-His6 (Cdc12(Δ339–407)-His6) (Saccharomyces cerevisiae, UniProt P32468); test: filter binding of radiolabelled GTPγS; conditions: labelled compound
T3 sequence (P32468 1-338): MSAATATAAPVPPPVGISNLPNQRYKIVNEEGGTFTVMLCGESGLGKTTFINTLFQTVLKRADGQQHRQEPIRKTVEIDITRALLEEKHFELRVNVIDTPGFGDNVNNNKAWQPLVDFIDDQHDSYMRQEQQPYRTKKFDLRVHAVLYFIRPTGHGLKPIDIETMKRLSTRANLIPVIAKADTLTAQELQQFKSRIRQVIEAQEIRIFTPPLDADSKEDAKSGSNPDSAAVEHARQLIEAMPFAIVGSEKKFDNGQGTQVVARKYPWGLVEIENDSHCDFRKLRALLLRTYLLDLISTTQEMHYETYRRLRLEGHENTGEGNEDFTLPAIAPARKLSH

Cdc12-His6 [4] = biological target: T1, Cdc12-His6; test: filter binding of radiolabelled GTPγS; conditions: labelled compound
GST-Cdc3 [5] = biological target: T4, GST-Cdc3 (S. cerevisiae, UniProt P32457 1-520); test: pull-down
T4 sequence: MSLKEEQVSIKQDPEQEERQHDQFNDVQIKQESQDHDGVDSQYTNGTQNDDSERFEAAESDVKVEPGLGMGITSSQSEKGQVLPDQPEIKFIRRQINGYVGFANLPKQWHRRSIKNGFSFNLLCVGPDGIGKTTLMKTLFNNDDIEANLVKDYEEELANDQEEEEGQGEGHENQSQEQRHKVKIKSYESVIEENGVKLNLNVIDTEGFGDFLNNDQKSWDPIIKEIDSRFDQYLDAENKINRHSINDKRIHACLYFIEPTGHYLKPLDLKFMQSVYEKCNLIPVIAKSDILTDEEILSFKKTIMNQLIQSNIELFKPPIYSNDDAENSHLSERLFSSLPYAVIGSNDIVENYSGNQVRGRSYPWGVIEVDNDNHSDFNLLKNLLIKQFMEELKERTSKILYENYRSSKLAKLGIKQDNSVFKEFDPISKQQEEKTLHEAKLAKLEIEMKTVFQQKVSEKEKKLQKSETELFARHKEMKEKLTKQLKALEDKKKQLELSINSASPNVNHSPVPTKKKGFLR

GST-Cdc11 [6] = biological target: T5, GST-Cdc11 (S. cerevisiae, UniProt P32458 1-415); test: pull-down
T5 sequence: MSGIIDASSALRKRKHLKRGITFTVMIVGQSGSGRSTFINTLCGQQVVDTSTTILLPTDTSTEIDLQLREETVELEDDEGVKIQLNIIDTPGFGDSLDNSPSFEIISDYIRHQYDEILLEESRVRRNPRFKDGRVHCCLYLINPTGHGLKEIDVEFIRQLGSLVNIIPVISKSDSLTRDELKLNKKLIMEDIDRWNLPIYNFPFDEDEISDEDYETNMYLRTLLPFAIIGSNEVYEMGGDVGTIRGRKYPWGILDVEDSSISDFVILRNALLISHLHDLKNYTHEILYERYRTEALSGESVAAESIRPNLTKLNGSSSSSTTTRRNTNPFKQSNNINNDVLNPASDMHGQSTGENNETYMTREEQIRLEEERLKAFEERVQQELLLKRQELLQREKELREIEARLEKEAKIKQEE

GST-HSL1(833-1518) = biological target: T6, GST-HSL1(833-1518) (S. cerevisiae, UniProt P34244 833-1518); test: pull-down
T6 sequence: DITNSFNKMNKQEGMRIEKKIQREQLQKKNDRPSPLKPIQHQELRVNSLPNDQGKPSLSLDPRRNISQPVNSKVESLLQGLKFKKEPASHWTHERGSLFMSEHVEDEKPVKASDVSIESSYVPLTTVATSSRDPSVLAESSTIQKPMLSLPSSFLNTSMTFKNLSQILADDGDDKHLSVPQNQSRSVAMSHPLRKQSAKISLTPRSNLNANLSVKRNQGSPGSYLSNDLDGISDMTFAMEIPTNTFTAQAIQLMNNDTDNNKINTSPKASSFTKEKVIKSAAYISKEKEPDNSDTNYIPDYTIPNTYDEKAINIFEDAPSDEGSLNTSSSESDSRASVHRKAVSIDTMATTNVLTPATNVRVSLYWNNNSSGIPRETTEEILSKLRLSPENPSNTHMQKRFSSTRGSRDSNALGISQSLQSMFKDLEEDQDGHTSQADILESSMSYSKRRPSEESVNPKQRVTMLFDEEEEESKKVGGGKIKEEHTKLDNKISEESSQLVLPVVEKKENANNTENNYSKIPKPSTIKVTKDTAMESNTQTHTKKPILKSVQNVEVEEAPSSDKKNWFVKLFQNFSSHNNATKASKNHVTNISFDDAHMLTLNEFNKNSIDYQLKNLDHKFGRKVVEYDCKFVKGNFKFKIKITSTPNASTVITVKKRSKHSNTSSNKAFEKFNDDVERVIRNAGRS

GST-Cdc12 = biological target: T7, GST-Cdc12 (S. cerevisiae, UniProt P32468 1-407); test: pull-down
T7 sequence: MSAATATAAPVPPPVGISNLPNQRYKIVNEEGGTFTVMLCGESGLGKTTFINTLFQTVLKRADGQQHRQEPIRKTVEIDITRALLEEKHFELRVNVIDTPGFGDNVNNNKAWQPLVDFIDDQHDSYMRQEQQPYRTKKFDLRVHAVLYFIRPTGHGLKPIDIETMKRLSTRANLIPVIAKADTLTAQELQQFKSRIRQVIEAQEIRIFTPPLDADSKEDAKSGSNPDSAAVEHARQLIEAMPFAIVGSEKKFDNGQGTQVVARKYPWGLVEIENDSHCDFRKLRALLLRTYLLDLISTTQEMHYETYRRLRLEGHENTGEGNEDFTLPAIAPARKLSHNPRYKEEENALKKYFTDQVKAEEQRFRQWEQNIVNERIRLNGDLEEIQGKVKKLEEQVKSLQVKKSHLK

GST-Cdc3 [7] = biological target: T4, GST-Cdc3; test: pull-down; remark: listed apart in the source
GST-Cdc11 [8] = biological target: T5, GST-Cdc11; test: pull-down; remark: listed apart in the source
Cdc12-His6 [9] = biological target: B1; test: pull-down
Cdc12(T48N)-His6 = biological target: B2; test: pull-down

In the case of `Nc1nc2c(ncn2[C@@H]2O[C@H](COP(=O)(O)OP(=O)(O)OP(=O)(O)O)[C@@H](O)[C@H]2O)c(=O)[nH]1` [GTP], the “binding of α[32P]GTP to complex on Ni2+-NTA beads” value [1] is reported as “GTP binding to the His6Cdc12–Cdc3–Cdc10–Cdc11 complex”, the “GTPase, phosphate release from γ[32P]GTP” value (Cdc12-His6 [2]) is reported as “Only Cdc10 and Cdc12 displayed detectable GTPase activity above the background control” and the “GTPase, phosphate release from γ[32P]GTP” value (Cdc10) is reported as “Only Cdc10 and Cdc12 displayed detectable GTPase activity above the background control”.

`Nc1nc2c(ncn2[C@@H]2O[C@H](COP(=O)(O)OP(=O)(O)OP(O)(O)=S)[C@@H](O)[C@H]2O)c(=O)[nH]1` [GTPγS] was tested, and the “filter binding of radiolabelled GTPγS” value [3] was “Both full-length Cdc12 and Cdc12ΔC formed stable complexes with GTPγS over time” and the “filter binding of radiolabelled GTPγS” value (Cdc12-His6 [4]) was “Both full-length Cdc12 and Cdc12ΔC formed stable complexes with GTPγS over time”.

B1: binds (GST-Cdc3 [5]); binds (GST-Cdc11 [6]); binds (GST-HSL1(833-1518)). B1: binds (GST-Cdc12).

B2: binds (GST-Cdc3 [7]); binds (GST-Cdc11 [8]); binds (GST-HSL1(833-1518)). B2: binds (GST-Cdc12).

B3: GST-Cdc10 (natural protein)
chain: MDPLSSVQPASYVGFDTITNQIEHRLLKKGFQFNIMVVGQSGLGKSTLINTLFASHLIDSATGDDISALPVTKTTEMKISTHTLVEDRVRLNINVIDTPGFGDFIDNSKAWEPIVKYIKEQHSQYLRKELTAQRERFITDTRVHAILYFLQPNGKELSRLDVEALKRLTEIANVIPVIGKSDTLTLDERTEFRELIQNEFEKYNFKIYPYDSEELTDEELELNRSVRSIIPFAVVGSENEIEINGETFRGRKTRWSAINVEDINQCDFVYLREFLIRTHLQDLIETTSYIHYEGFRARQLIALKENANSRSSAHMSSNAIQR
B3: binds (Cdc12-His6 [9]); binds (Cdc12(T48N)-His6).
